Molecular target: LssaCA-His (L. striatellus salivary carbonic anhydrase lacking the signal peptide, C-terminal His tag) (Laodelphax striatellus)
Test: MST; 10 µM LssaCA^sp- (His-fusion) labelled with NT-647 (RED-NHS), added to serially diluted GST-NP or MBP-OsTLP^sp-; initial concentration 40 µM, 0.1% (v/v) Tween 20; Monolith NT.115; KD Fit

## GST-NP (rice stripe virus nucleocapsid protein, GST fusion) (natural protein)
  Kd: 2.7 µM

## MBP-OsTLP (Oryza sativa thaumatin-like protein without its signal peptide, N-terminal MBP fusion) (enzyme)
  Kd: 1.3 µM
